Like-named read-outs stand apart in the source and are kept apart here.
How the values were obtained:
Assay in all cases: cell-based or functional assay
[1] = target: IL-15Rβ/γ chain (IL-2Rβ and common gamma chain) on human CD8+ T cells and NK cells (human) (UniProt P14784)
[2] = target: IL-15Rβ/γ chain (IL-2Rβ and common gamma chain) on human CD8+ T cells and NK cells (human) (UniProt P14784); remark: listed apart in the source
[3] = target: IL-15Rβ/γ chain (IL-2Rβ and common gamma chain) on human CD8+ T cells and NK cells (human) (UniProt P14784); remark: listed apart in the source
[4] = target: IL-15Rβ/γ chain (IL-2Rβ and common gamma chain) on human CD8+ T cells and NK cells (human) (UniProt P14784); remark: listed apart in the source

Sequence of IL-15Rβ/γ chain (IL-2Rβ and common gamma chain) on human CD8+ T cells and NK cells (human) (P14784 27-551, chain 1 of 2): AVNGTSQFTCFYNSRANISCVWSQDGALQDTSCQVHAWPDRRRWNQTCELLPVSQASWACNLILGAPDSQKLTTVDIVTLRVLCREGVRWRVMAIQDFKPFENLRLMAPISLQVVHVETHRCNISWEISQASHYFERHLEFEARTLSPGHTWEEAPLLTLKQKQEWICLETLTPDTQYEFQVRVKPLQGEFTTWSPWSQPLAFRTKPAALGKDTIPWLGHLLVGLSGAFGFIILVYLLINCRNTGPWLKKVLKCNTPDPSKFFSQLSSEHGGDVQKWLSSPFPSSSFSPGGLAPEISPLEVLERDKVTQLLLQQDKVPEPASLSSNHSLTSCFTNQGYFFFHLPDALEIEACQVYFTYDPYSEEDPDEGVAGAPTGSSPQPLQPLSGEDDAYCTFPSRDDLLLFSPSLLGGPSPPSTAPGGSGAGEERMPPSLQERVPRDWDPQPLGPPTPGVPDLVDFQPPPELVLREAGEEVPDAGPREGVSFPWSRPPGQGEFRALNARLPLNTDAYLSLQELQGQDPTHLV
Sequence of IL-15Rβ/γ chain (IL-2Rβ and common gamma chain) on human CD8+ T cells and NK cells (human) (P31785 23-369, chain 2 of 2, further chain): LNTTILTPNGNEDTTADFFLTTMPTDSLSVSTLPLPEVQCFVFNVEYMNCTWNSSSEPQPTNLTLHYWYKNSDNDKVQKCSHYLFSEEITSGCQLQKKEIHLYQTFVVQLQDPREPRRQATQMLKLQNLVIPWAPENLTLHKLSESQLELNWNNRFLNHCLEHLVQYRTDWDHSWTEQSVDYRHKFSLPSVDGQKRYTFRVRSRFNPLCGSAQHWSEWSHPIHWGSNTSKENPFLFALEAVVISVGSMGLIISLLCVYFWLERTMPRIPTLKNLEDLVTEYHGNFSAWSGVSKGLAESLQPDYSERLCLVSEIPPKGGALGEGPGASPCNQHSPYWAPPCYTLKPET

EC50, % Ki67 expression, human CD8+ T cells [1]: 203 nM
EC50, % Ki67 expression, human NK cells [1]: 35.5 nM
Fold reduced (EC50, % Ki67), human CD8+ T cells [1]: 441 fold
Fold reduced (EC50, % Ki67), human NK cells [1]: 355 fold
EC50, % Ki67 expression, human CD8+ T cells [2]: 651 nM
EC50, % Ki67 expression, human NK cells [2]: 74.3 nM
Fold reduced (EC50, % Ki67), human CD8+ T cells [2]: 2170 fold
Fold reduced (EC50, % Ki67), human NK cells [2]: 2480 fold
EC50, % Ki67 expression, human CD8+ T cells [3]: 145 nM
EC50, % Ki67 expression, human NK cells [3]: 39 nM
Fold reduced (EC50, % Ki67), human CD8+ T cells [3]: 176 fold
Fold reduced (EC50, % Ki67), human NK cells [3]: 231 fold
EC50, % Ki67 expression, human CD8+ T cells [4]: 28.5 nM
EC50, % Ki67 expression, human NK cells [4]: 5.12 nM
Fold reduced (EC50, % Ki67), human CD8+ T cells [4]: 155 fold
Fold reduced (EC50, % Ki67), human NK cells [4]: 244 fold
B1: W369-BMK1 (XENP24306) (Fc fusion, not shown: a dimerising Fc or GST)
chain: NWVNVISDLKKIEDLIQSMHIDATLYTESNVHPSCKVTAMKCFLLELQVISLESGDASIHDTVQDLIILANNSLSSNGNVTESGCKECEELEEKNIKEFLQSFVHIVQMFINTS
modifications: IL-15Rα-Fc chain, linker, Fc lack entries

Source: patent publication US20230270823A1
